Tests used:
[1] = Oral gavage of engineered E. coli Nissle in mice, metabolites and body weight; format: in vivo, mice (NMRI); conditions: carbidopa 10 mg/kg IP every 24 h
Procedure: Female mice (NMRI, supplied by Taconic Biosciences, 6 weeks of age) were group-housed on a 12-h light:dark cycle at constant temperature with ad libitum access to food and water in a Specific Pathogen Free (SPF) facility. Upon delivery, mice were given 5 days to adjust to new location. Cohort size was 8 animals, and 4 different cohorts were tested, see below. All animals received Streptomycin (5 g/L) in the drinking water to ensure colonization, 3 days before being gavaged and throughout the experiment. A single oral gavage of 10^8 cells was administered of either L-DOPA-producing (called ‘EcN_DOPA’) or a control E. coli Nissle (‘EcN_CTRL’) strain without expression of the tyrosine hydroxylase gene. Samples were taken for the following 7 days, after which animals were euthanized and final blood samples and gut content samples were collected. […] Fresh fecal samples were collected daily for 7 days to quantify colonization and metabolite levels. […]
In vivo sample analysis: Plasma, tissue samples, gut content and fecal samples were analyzed for DOPA-derived and related serotonin metabolites using LC-MS. […] Gut and brain tissue was also frozen for real-time quantitative PCR (RT-qPCR) and metabolite analysis. Quantification of metabolites from in vivo samples was performed as described above (‘LC-MS analysis’).

E. faecalis = assay: Bacteriocin assay (halos on BHI agar); format: cell-based; conditions: overnight 37 C, FIG. 6C
Procedure: Three colonies of each E. coli Nissle strain were inoculated in 5 ml of BHI broth and grown overnight at 37° C. in a shaking incubator. The following day, 1 ml of the culture was washed with PBS buffer once and 10 μl were used to spot the strains on top of a BHI agar plate. After drying, top BHI agar was mixed with 500 μl of previously grown E. faecalis, and was placed on top of the BHI agar containing the dried spots of the E. coli strains. Plates were dried for 10 minutes and then incubated at 37° C. overnight.

C[C@@](Cc1ccc(O)c(O)c1)(NN)C(=O)O [carbidopa]
Plasma serotonin levels ([1]; EcN_DOPA p=0.08): reduced | Serotonin (5-HT) concentrations in urine ([1]; single oral gavage 10^8 cells, EcN_DOPA vs control strain p=0.06): decreased below detection level

B1: ubericin A: bacteriocin (SEQ ID NO. 29) co-expressed by L-DOPA producing E. coli Nissle (protein)
chain: MKKTAIAIAVALAGFATVAQAKTVNYGNGLYCNQKKCWVNWSETATTIVNNSIMNGLTGGNAGWHSGGRA
modifications: Ubericin A
inhibition of E. faecalis around EcN spots (E. faecalis): halos of inhibition

B2: Enterocin A: bacteriocin (SEQ ID NO. 31) co-expressed by L-DOPA producing E. coli Nissle, pMUT-DOPA_5-EntA (protein)
chain: MKKTAIAIAVALAGFATVAQATTHSGKYYGNGVYCTKNKCTVDWAKATTCIAGMSIGGFLGGAIPGKC
modifications: Enterocin A
inhibition of E. faecalis around EcN spots (E. faecalis): halos of inhibition

B3: Hiracin JM79: bacteriocin (SEQ ID NO. 27) co-expressed by L-DOPA producing E. coli Nissle (protein)
chain: MKKTAIAIAVALAGFATVAQAATYYGNGLYCNKEKCWVDWNQAKGEIGKIIVNGWVNHGPWAPRR
modifications: Hiracin JM79
inhibition of E. faecalis around EcN spots (E. faecalis): halos of inhibition
